The record followed here is US20190233522A1 (Genmab, published 2019).

In assay [1] the target is T1, AXL (human, UniProt P30530 26-447, limits assumed).
T1 construct: neither the species nor the construct used is stated there; also called human AXL protein; UFO
Nature of the assay: not described.

The target in assay [2] is T1, AXL. The assay can be described thus: competition with Gas6; assay not described.

T1 sequence (P30530 26-447 limits assumed): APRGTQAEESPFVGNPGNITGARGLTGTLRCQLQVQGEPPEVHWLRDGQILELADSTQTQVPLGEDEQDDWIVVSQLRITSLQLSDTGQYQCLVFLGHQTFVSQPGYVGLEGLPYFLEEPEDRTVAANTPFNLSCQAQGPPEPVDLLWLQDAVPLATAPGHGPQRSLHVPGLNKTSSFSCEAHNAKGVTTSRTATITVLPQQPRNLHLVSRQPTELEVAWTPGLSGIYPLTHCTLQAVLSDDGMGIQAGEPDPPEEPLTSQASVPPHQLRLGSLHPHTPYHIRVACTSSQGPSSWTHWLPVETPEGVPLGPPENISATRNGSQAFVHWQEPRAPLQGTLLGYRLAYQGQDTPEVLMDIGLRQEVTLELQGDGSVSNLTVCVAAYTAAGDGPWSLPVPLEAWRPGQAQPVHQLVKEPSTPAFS

B1: IgG1-AXL-107-vcMMAE (antibody, V domains shown)
VH: EVQLLESGGGLVQPGGSLRLSCAASGFTFSSYAMNWVRQAPGKGLEWVSTTSGSGASTYYADSVKGRFTISRDNSKNTLYLQMNSLRAEDTAVYYCAKIWIAFDIWGQGTMVTVSS
VL: not shown
notes: also called HuMax-AXL-ADC; IgG1-1021-107-MMAE
For B1, the binding result in assay [1] was “binds”.

B2: IgG1-AXL-061-vcMMAE (antibody, V domains shown)
VH: QVQLVQSGAEVKKPGASVKVSCKASGYAFTGYGISWVRQAPGQGLEWIGWISAYNGNTNYVQNLQDRVTMTTDTSTSTAYMELRSLRSDDTAVYYCARDHISMLRGIIIRNYWGQGTLVTVSS
VL: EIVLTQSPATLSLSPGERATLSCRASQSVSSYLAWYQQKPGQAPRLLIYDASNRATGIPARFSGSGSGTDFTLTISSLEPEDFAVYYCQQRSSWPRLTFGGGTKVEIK
modifications: vcMMAE alkylated to cysteines of the reduced antibody (positions not given)
notes: Antibody-drug conjugate of antibody 061 with vcMMAE; IgG1 by name
B2: the binding result in assay [1] was “binds”.

B3: IgG1-AXL-061 (antibody, V domains shown)
VH: B2 VH
VL: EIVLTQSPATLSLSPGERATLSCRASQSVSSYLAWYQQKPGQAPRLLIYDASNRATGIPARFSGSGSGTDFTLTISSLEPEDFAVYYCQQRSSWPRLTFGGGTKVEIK
notes: IgG1 by name; Unconjugated antibody
In the case of B3, in assay [2], the binding result is listed as “binds”.

B4: IgG1-AXL-148-vcMMAE (antibody, V domains shown)
VH: EVQLLESGGGLVQPGGSLRLSCAASGFTFSSYAMTWVRQAPGKGLEWVSAISISGGSTFYADSVKGRFTISRDNSKNTLYLQMNSLRAEDTAVYYCRGYSGYVYDAFDFWGQGTMVTVSS
VL: DIQMTQSPSSLSASVGDRVTITCRASQGISNWLAWYQQKPEKAPKSLIYAASSLQSGVPSRFSGSGSGTDFTLTISSLQPEDFATYYCQQYNSYPLTFGGGTKVEIK
modifications: vcMMAE alkylated to cysteines of the reduced antibody (positions not given)
notes: Antibody-drug conjugate of antibody 148 with vcMMAE; IgG1 by name; also called IgG1-1021-148-MMAE; IgG1-AXL-148-MMAE
With B4, in assay [1], the binding result is recorded as “binds”.
